Measured values as given in article PMC9482650, “Quantitative fragmentomics allow affinity mapping of interactomes” (Nature Communications, 2022).
One block for each binder: values may come before it.

Tests used:
Experiment in all cases: holdup assay
Parameters in all cases: key: below the threshold = too weak to quantify, mostly under pKd 3.1 to 4
[1] = molecular target: T1, APBA2_1, Q99767
T1 sequence (Q99767 563-664, limits assumed, looked up): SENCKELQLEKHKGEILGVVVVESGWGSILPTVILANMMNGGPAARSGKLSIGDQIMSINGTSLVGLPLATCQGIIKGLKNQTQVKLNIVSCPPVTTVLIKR

[2] = molecular target: T2, APBA2_2, Q99767
T2 sequence (Q99767 654-744, limits assumed, looked up): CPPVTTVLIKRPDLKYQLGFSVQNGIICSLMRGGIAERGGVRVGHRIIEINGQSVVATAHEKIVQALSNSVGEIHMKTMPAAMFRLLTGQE

[3] = molecular target: T3, ARHGEF11, O15085
T3 sequence (O15085 42-136, limits assumed, looked up): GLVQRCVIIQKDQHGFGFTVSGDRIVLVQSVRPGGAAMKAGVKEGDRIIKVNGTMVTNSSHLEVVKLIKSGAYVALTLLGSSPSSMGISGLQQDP

[4] = molecular target: T4, DFNB31_2, Q9P202
T4 sequence (Q9P202 274-371, limits assumed, looked up): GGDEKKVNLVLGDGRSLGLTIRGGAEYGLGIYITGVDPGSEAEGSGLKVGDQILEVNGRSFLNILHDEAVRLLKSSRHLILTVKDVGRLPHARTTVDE

[5] = molecular target: DLG1_1, Q12959
[6] = molecular target: DLG5_1, Q8TDM6
Chain of DLG5_1, Q8TDM6 (Q8TDM6 617-713): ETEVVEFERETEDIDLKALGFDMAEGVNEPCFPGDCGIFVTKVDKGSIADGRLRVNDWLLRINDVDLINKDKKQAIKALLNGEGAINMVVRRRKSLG

[7] = molecular target: T5, DVL3, Q92997
T5 sequence (Q92997 244-331, limits assumed, looked up): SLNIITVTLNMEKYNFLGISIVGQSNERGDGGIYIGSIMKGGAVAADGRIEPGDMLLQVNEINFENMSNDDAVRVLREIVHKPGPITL

[8] = molecular target: GRASP, Q7Z6J2
Chain of GRASP, Q7Z6J2 (Q7Z6J2 96-193): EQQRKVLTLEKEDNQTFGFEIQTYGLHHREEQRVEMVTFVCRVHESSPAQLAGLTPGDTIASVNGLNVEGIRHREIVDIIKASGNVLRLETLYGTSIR

[9] = molecular target: GRIP2_3, Q9C0E4
Chain of GRIP2_3, Q9C0E4 (Q9C0E4 238-339): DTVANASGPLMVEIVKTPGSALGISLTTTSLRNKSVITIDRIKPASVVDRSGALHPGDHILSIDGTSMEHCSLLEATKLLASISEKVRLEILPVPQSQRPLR

[10] = molecular target: GRIP2_6, Q9C0E4
Chain of GRIP2_6, Q9C0E4 (Q9C0E4 648-740): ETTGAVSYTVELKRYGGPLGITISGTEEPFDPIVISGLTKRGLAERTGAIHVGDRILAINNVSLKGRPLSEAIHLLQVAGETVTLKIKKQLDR

[11] = molecular target: HTRA1, Q92743
Chain of HTRA1, Q92743 (Q92743 360-477): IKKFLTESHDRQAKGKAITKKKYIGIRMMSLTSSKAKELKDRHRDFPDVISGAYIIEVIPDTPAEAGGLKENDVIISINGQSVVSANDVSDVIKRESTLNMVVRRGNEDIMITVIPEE

[12] = molecular target: IL16_3, Q14005
Chain of IL16_3, Q14005 (Q14005 1107-1207): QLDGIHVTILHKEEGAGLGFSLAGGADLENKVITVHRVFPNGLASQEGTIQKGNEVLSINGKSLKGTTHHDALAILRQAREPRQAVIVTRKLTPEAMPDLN

[13] = molecular target: IL16_4, Q14005
Chain of IL16_4, Q14005 (Q14005 1229-1329): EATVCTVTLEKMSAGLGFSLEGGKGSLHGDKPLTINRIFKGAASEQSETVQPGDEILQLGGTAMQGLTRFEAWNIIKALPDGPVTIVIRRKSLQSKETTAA

[14] = molecular target: LIMK2, P53671
Chain of LIMK2, P53671 (P53671 143-248): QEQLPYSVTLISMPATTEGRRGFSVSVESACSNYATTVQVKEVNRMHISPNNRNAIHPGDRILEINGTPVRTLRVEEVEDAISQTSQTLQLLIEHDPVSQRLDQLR

[15] = molecular target: T6, LNX2_3, Q8N448
T6 sequence (Q8N448 463-564, limits assumed, looked up): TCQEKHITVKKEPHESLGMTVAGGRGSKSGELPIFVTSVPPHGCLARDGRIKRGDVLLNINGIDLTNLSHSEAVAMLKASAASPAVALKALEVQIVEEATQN

[16] = molecular target: T7, MPDZ_10, O75970
T7 sequence (O75970 1624-1722, limits assumed, looked up): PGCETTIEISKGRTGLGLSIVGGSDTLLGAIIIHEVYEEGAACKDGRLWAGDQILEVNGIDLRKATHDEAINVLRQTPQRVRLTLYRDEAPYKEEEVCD

[17] = molecular target: T8, MPP6, Q9NZW5
T8 sequence (Q9NZW5 125-219, limits assumed, looked up): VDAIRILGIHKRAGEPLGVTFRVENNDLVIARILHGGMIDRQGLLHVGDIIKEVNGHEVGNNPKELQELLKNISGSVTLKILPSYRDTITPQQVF

[18] = molecular target: NHERF4_1, Q86UT5-2
Chain of NHERF4_1, Q86UT5-2 (Q86UT5 other isoform, or with tags, fused parts or gaps): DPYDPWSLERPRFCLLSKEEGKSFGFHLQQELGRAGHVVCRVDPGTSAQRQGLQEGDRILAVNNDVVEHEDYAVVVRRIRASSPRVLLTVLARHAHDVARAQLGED

[19] = molecular target: T9, PDZD2_2, O15018
T9 sequence (O15018 329-429, limits assumed, looked up): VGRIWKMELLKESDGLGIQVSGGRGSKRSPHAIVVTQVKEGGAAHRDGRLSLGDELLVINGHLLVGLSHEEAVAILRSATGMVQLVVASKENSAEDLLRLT

[20] = molecular target: T10, RAPGEF6, Q8TEU7
T10 sequence (Q8TEU7 525-625, limits assumed, looked up): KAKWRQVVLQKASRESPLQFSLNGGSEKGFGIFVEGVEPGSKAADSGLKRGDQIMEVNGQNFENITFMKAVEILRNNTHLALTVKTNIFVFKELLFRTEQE

[21] = molecular target: SCRIB_2, Q14160
Chain of SCRIB_2, Q14160 (Q14160 857-960): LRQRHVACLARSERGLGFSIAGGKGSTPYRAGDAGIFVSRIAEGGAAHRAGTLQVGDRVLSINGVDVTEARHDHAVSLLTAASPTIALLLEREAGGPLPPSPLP

[22] = molecular target: SCRIB_3, Q14160
Chain of SCRIB_3, Q14160 (Q14160 999-1103): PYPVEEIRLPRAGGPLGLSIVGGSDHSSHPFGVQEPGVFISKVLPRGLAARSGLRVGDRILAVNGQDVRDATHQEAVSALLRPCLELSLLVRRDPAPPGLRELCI

[23] = molecular target: T11, SNTB1, Q13884
T11 sequence (Q13884 107-205, limits assumed, looked up): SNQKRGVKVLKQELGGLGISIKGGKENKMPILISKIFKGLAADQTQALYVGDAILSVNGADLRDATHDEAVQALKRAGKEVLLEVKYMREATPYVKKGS

[24] = molecular target: SNX27, Q96L92
[25] = molecular target: TJP1_2, Q07157
Chain of TJP1_2, Q07157 (Q07157 181-274): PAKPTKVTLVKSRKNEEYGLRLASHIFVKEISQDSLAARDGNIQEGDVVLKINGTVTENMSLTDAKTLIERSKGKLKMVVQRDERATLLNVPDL

[26] = molecular target: TJP2_1, Q9UDY2
Chain of TJP2_1, Q9UDY2 (Q9UDY2 24-128): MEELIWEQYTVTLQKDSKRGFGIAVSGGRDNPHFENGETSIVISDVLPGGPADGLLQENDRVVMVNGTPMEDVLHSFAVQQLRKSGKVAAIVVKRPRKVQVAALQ

[27] = plain residues with an end cap or a label only (N-terminal biotin on a linker: ttds)
[28] = plain residues with an end cap or a label only (N-terminal biotin on a linker: ahx)

pKd [1, 27]: below the threshold | pKd [2, 27]: below the threshold | pKd [3, 27]: 4.44 | pKd [4, 27]: below the threshold | pKd [5, 27]: below the threshold | pKd [6, 27]: below the threshold | pKd [7, 27]: below the threshold | pKd [8, 27]: 4.17 | pKd [9, 27]: below the threshold | pKd [10, 27]: below the threshold | pKd [11, 27]: 4.09 | pKd [12, 27]: below the threshold | pKd [13, 27]: below the threshold | pKd [14, 27]: below the threshold | pKd [15, 27]: 3.71 | pKd [16, 27]: 3.76 | pKd [17, 27]: 3.73 | pKd [18, 27]: 3.57 | pKd [19, 27]: 3.55 | pKd [20, 27]: 3.7 | pKd [21, 27]: below the threshold | pKd [22, 27]: 4.36 | pKd [23, 27]: 4.14 | pKd [24, 27]: 3.5 | pKd [25, 27]: 3.51 | pKd [26, 27]: below the threshold
Binder: RRVRKLPSTTL [RPS6KA1, Q15418]

pKd [1, 28]: below the threshold | pKd [2, 28]: below the threshold | pKd [3, 28]: 4.1 | pKd [4, 28]: below the threshold | pKd [5, 28]: below the threshold | pKd [6, 28]: below the threshold | pKd [7, 28]: below the threshold | pKd [8, 28]: 4.86 | pKd [9, 28]: below the threshold | pKd [10, 28]: below the threshold | pKd [11, 28]: 4.18 | pKd [12, 28]: below the threshold | pKd [13, 28]: below the threshold | pKd [14, 28]: below the threshold | pKd [15, 28]: below the threshold | pKd [16, 28]: 3.82 | pKd [17, 28]: below the threshold | pKd [18, 28]: below the threshold | pKd [19, 28]: 5.72 | pKd [20, 28]: below the threshold | pKd [21, 28]: below the threshold | pKd [22, 28]: below the threshold | pKd [23, 28]: 3.87 | pKd [24, 28]: 5.32 | pKd [25, 28]: below the threshold | pKd [26, 28]: below the threshold
Binder: EDEDEQVSAV [RAPGEF2, Q9Y4G8]

pKd [1, 28]: below the threshold | pKd [2, 28]: below the threshold | pKd [3, 28]: below the threshold | pKd [4, 28]: below the threshold | pKd [5, 28]: below the threshold | pKd [6, 28]: below the threshold | pKd [7, 28]: 3.61 | pKd [8, 28]: below the threshold | pKd [9, 28]: below the threshold | pKd [10, 28]: 3.91 | pKd [11, 28]: 4.84 | pKd [12, 28]: below the threshold | pKd [13, 28]: below the threshold | pKd [14, 28]: below the threshold | pKd [15, 28]: below the threshold | pKd [16, 28]: below the threshold | pKd [17, 28]: below the threshold | pKd [18, 28]: below the threshold | pKd [19, 28]: 3.99 | pKd [20, 28]: below the threshold | pKd [21, 28]: below the threshold | pKd [22, 28]: below the threshold | pKd [23, 28]: below the threshold | pKd [24, 28]: below the threshold | pKd [25, 28]: below the threshold | pKd [26, 28]: below the threshold
Binder: KKNKDKEYYV [NRXN1, Q9ULB1]
